Results as given in patent US20130059773A1 (published 2013).

Molecular target: T1, Proliferating Cell Nuclear Antigen (PCNA), wild type, cellular (cytosolic PCNA of human neutrophils) (human, UniProt P12004 1-261)
T1 construct: Endogenous protein in human neutrophil cytosol in the co-immunoprecipitations; Expressed from pcDNA3-PCNA in PLB985 cells in the caspase-9 activity row; also called cytoplasmic PCNA; PLB985-PCNA (overexpressed form)
Test: co-immunoprecipitation from neutrophil cytosol, western blot

T1 sequence (P12004 whole entry): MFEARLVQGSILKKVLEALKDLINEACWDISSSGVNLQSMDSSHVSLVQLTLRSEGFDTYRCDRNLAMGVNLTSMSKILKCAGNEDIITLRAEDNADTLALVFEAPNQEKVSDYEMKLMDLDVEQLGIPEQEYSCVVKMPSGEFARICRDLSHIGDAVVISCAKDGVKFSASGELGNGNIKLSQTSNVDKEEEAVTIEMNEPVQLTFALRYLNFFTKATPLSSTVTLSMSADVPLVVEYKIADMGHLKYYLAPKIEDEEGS

binding result: no binding
B1: Bid (other, human, UniProt P55957 1-195, looked up)
chain: MDCEVNNGSSLRDECITNLLVFGFLQSCSDNSFRRELDALGHELPVLAPQWEGYDELQTDGNRSSHSRLGRIEADSESQEDIIRNIARHLAQVGDSMDRSIPPGLVNGLALQLRNTSRSEEDRNRDLATALEQLLQAYPRDMEKEKTMLVLALLLAKKVASHTPSLLRDVFHTTVNFINQNLRTYVRSLARNGMD
